Patent US9297028B2, “Fermentive production of four carbon alcohols” (Butamax Advanced Biofuels LLC, priority 2005, dated 2016)

Columns and labels:
Format in all cases: biochemical
[1] = Trans-2-enoyl-CoA reductase (butyryl-CoA dehydrogenase) activity assayed as described by Hoffmeister et al.
Description: Trans-2-enoyl-CoA reductase activity was assayed as described by Hoffmeister et al. (J. Biol. Chem. 280, 4329-4338 (2005)). In one typical assay, the specific activity of the TER CAC0462 protein in the induced culture was determined to be 0.694 μmol mg^−1 min^−1 compared to 0.0128 μmol mg^−1 min^−1 in the uninduced culture.
Trans-2-enoyl-CoA reductase activity was assayed as described by Hoffmeister et al., J. Biol. Chem. 280:4329 (2005). In a typical assay, the specific activity of the EgTER(opt) protein in the induced BL21 (DE3)/pET23+::EgTER(opt) culture was determined to be 1.9 μmol mg^−1 min^−1 compared to 0.547 μmol mg^−1 min^−1 in the uninduced culture.
(§1) For enzyme activity analysis, a single colony of each strain was streaked onto a fresh plate containing SD minimal drop out medium and incubated at 30° C. for 2 days. The cells on this plate were used to inoculate 20 mL of SD drop out medium and in a 125 mL shake flask and grown overnight at 30° C., with shaking at 250 rpm. The optical density (OD600) of the overnight culture was measured, and the culture was diluted to an OD600=0.1 in 250 mL of the same medium in a 1.0 L shake flask, and grown at 30° C. with shaking at 250 rpm to an OD600 of between 0.8 to 1.0. The cells were then harvested by centrifugation at 2000×g for 10 min, and resuspended in 20 mL of 50 mM Tris-HCl buffer, pH 8.5. Enzyme assays were performed as described above.

[2] = Acetoacetyl-CoA thiolase activity in cell free extracts (decrease in absorbance at 303 nm); conditions: yeast strain BY4741 (pNY6), ERG10 gene, in words
Description: Acetoacetyl-CoA thiolase activity in the cell free extracts was measured as degradation of a Mg^2+-acetoacetyl-CoA complex by monitoring the decrease in absorbance at 303 nm. Standard assay conditions were 100 mM Tris-HCl pH 8.0, 1 mM DTT (dithiothreitol) and 10 mM MgCl2. The cocktail was equilibrated for 5 min at 37° C.; then the cell-free extract was added. The reaction was initiated with the addition of 0.05 mM acetoacetyl-CoA plus 0.2 mM CoA. Protein concentration was measured by either the Bradford method or by the Bicinchoninic Kit (Sigma, catalog no. BCA-1). Bovine serum albumin (Bio-Rad, Hercules, Calif.) was used as the standard in both cases. In one typical assay, the specific activity of the ThlA protein in the induced culture was determined to be 16.0 μmol mg^−1 min^−1 compared to 0.27 μmol mg^−1 min^−1 in the uninduced culture.
For enzyme activity analysis, a single colony of each strain was streaked onto a fresh plate containing SD minimal drop out medium and incubated at 30° C. for 2 days. […] The optical density (OD600) of the overnight culture was measured, and the culture was diluted to an OD600=0.1 in 250 mL of the same medium in a 1.0 L shake flask, and grown at 30° C. with shaking at 250 rpm to an OD600 of between 0.8 to 1.0. […]

[3] = Acylating aldehyde dehydrogenase activity (formation of NADH, absorbance at 340 nm); conditions: yeast BY4741 transformants containing pNY8
Description: Acylating aldehyde dehydrogenase activity was determined by monitoring the formation of NADH, as measured by the increase in absorbance at 340 nm, as described by Husemann et al. (Appl. Microbiol. Biotechnol. 31:435-444 (1989)). In one typical assay, the specific activity of the Aid protein in the induced culture was determined to be 0.106 μmol mg^−1 min^−1 compared to 0.01 μmol mg^−1 min^−1 in the uninduced culture
as §1

[4] = Crotonase activity assayed as described by Stern
Description: Crotonase activity was assayed as described by Stern (Methods Enzymol. 1, 559-566, (1954)). In one typical assay, the specific activity of the crotonase protein in the induced culture was determined to be 444 μmol mg^−1 min^−1 compared to 47 μmol mg^−1 min^−1 in the uninduced culture.
as §1

B1: Ter: butyl-CoA dehydrogenase (ter) encoded by the codon optimized tery gene, SEQ ID NO:187 (protein)
chain: MLVKAKFVKGFIRDVHPYGCRREVLNQIDYCKKAIGFRGPKKVLIVGASSGFGLATRISVAFGGPEAHTIGVSYETGATDRRIGTAGWYNNIFFKEFAKKKGLVAKNFIEDAFSNETKDKVIKYIKDEFGKIDLFVYSLAAPRRKDYKTGNVYTSRIKTILGDFEGPTIDVERDEITLKKVSSASIEEIEETRKVMGGEDWQEWCEELLYEDCFSDKATTIAYSYIGSPRTYKIYREGTIGIAKKDLEDKAKLINEKLNRVIGGRAFVSVNKALVTKASAYIPTFPLYAAILYKVMKEKNIHENCIMQIERMFSEKIYSNEKIQFDDKGRLRMDDLELRKDVQDEVDRIWSNITPENFKELSDYKGYKKEFMNLNGFDLDGVDYSKDLDIELLRKLEP
modifications: Modified Ter protein
- Ter activity ([1]; yeast BY4741 transformant of pNY9): 0.26 U/mg
- Ter activity ([1]; yeast BY4741 transformed with pNY13, SD-His medium): 0.19 U/mg

B2: EgTER(opt): butyryl-CoA dehydrogenase (TER) from Euglena gracilis, codon optimized gene lacking the normal mitochondrial presequence (protein, UniProt Q5EU90 69-539, looked up)
Trans-2-enoyl-CoA reductase: VPQMAEGFSGEATSAWAAAGPQWAAPLVAAASSALALWWWAARRSVRRPLAALAELPTAVTHLAPPMAMFTTTAKVIQPKIRGFICTTTHPIGCEKRVQEEIAYARAHPPTSPGPKRVLVIGCSTGYGLSTRITAAFGYQAATLGVFLAGPPTKGRPAAAGWYNTVAFEKAALEAGLYARSLNGDAFDSTTKARTVEAIKRDLGTVDLVVYSIAAPKRTDPATGVLHKACLKPIGATYTNRTVNTDKAEVTDVSIEPASPEEIADTVKVMGGEDWELWIQALSEAGVLAEGAKTVAYSYIGPEMTWPVYWSGTIGEAKKDVEKAAKRITQQYGCPAYPVVAKALVTQASSAIPVVPLYICLLYRVMKEKGTHEGCIEQMVRLLTTKLYPENGAPIVDEAGRVRVDDWEMAEDVQQAVKDLWSQVSTANLKDISDFAGYQTEFLRLFGFGIDGVDYDQPVDVEADLPSAAQQ
- specific activity (trans-2-enoyl-CoA reductase) ([1]; induced BL21 (DE3)/pET23+::EgTER(opt) culture): 1.9 µmol/mg/min
- butyryl-CoA dehydrogenase activity ([1]; pTrc99a-EgTER(opt) compared with CaTER constructs, in words): Higher

B3: ERG10: product of the Saccharomyces cerevisiae ERG10 gene, a functional ortholog of the thlA gene (protein, UniProt P41338 2-398, looked up)
Acetyl-CoA acetyltransferase: SQNVYIVSTARTPIGSFQGSLSSKTAVELGAVALKGALAKVPELDASKDFDEIIFGNVLSANLGQAPARQVALAAGLSNHIVASTVNKVCASAMKAIILGAQSIKCGNADVVVAGGCESMTNAPYYMPAARAGAKFGQTVLVDGVERDGLNDAYDGLAMGVHAEKCARDWDITREQQDNFAIESYQKSQKSQKEGKFDNEIVPVTIKGFRGKPDTQVTKDEEPARLHVEKLRSARTVFQKENGTVTAANASPINDGAAAVILVSEKVLKEKNLKPLAIIKGWGEAAHQPADFTWAPSLAVPKALKHAGIEDINSVDYFEFNEAFSVVGLVNTKILKLDPSKVNVYGGAVALGHPLGCSGARVVVTLLSILQQEGGKIGVAAICNGGGGASSIVIEKI
- thiolase activity [2]: no thiolase activity

B4: Ald: butyraldehyde dehydrogenase encoded by ald from C. beijerinckii ATCC 35702, SEQ ID NO:12; in yeast from codon optimized aldy, SEQ ID NO:189 (protein, listed as Clostridium beijerinckii)
chain: MNKDTLIPTTKDLKVKTNGENINLKNYKDNSSCFGVFENVENAISSAVHAQKILSLHYTKEQREKIITEIRKAALQNKEVLATMILEETHMGRYEDKILKHELVAKYTPGTEDLTTTAWSGDNGLTVVEMSPYGVIGAITPSTNPTETVICNSIGMIAAGNAVVFNGHPCAKKCVAFAVEMINKAIISCGGPENLVTTIKNPTMESLDAIIKHPSIKLLCGTGGPGMVKTLLNSGKKAIGAGAGNPPVIVDDTADIEKAGRSIIEGCSFDNNLPCIAEKEVFVFENVADDLISNMLKNNAVIINEDQVSKLIDLVLQKNNETQEYFINKKWVGKDAKLFLDEIDVESPSNVKCIICEVNANHPFVMTELMMPILPIVRVKDIDEAIKYAKIAEQNRKHSAYIYSKNIDNLNRFEREIDTTIFVKNAKSFAGVGYEAEGFTTFTIAGSTGEGITSARNFTRQRRCVLAG
- Ald specific activity towards butyryl-CoA [3]: approximately 0.07 U/mg

B5: crotonase: crotonase encoded by crt from C. acetobutylicum ATCC 824, SEQ ID NO:8 (protein, listed as Clostridium acetobutylicum)
chain: MELNNVILEKEGKVAVVTINRPKALNALNSDTLKEMDYVIGEIENDSEVLAVILTGAGEKSFVAGADISEMKEMNTIEGRKFGILGNKVFRRLELLEKPVIAAVNGFALGGGCEIAMSCDIRIASSNARFGQPEVGLGITPGFGGTQRLSRLVGMGMAKQLIFTAQNIKADEALRIGLVNKVVEPSELMNTAKEIANKIVSNAPVAVKLSKQAINRGMQCDIDTALAFESEAFGECFSTEDQKDAMTAFIEKRKIEGFKNR
- Crt activity ([4]; yeast strain BY4741 (pNY11: pRS426-GPM1-crt-GPM1t)): 85 U/mg
- Crt enzyme activity ([4]; yeast strain DPD5200 (BY4743/pNY103), standard conditions): 23.0 U/mg
